Reference: US20230190901A1 (published 2023)
Residue numbers refer to the chain shown, from its start.

T1: MAGEC2 peptide on HLA-A*02 (human)
T1 peptide: ALIEVGPDHFCV

T2: MAGEC2 peptide on HLA-A*02 (human)
T2 peptide: FVYGEPREL

B1: TCR of SEQ ID NOs 30 and 31 (TCR, V domains shown)
Valpha: KQEVTQIPAALSVPEGENLVLNCSFTDSAIYNLQWFRQDPGKGLTSLLLIQSSQREQTSGRLNASLDKSSGRSTLYIAASQPGDSATYLCAVNEGSNYKLTFGKGTLLTVNP
Vbeta: NAGVTQTPKFRILKIGQSMTLQCTQDMNHNYMYWYRQDPGMGLKLIYYSVGAGITDKGEVPNGYNVSRSTTEDFPLRLELAAPSQTSVYFCASSYSSPHYGYTFGSGTRLTVV
B2: TCR of SEQ ID NOs 26 and 27 (TCR, V domains shown)
Valpha: KQEVTQIPAALSVPEGENLVLNCSFTDSAIYNLQWFRQDPGKGLTSLLLIQSSQREQTSGRLNASLDKSSGRSTLYIAASQPGDSATYLCAVVDSWGKLQFGAGTQVVVTP
Vbeta: NAGVTQTPKFQVLKTGQSMTLQCAQDMNHNSMYWYRQDPGMGLRLIHYSVGAGITDQGEVPNGYNVSRSTTEDFPLRLLSAAPSQTSVYFCASSPWGGATEAFFGQGTRLTVV
B3: TCR of SEQ ID NOs 28 and 29 (TCR, V domains shown)
Valpha: KQEVTQIPAALSVPEGENLVLNCSFTDSAIYNLQWFRQDPGKGLTSLLLIQSSQREQTSGRLNASLDKSSGRSTLYIAASQPGDSATYLCAVKGRGTYKYIFGTGTRLKVLA
Vbeta: NAGVTQTPKFRVLKTGQSMTLQCAQDMNHNSMYWYRQDPGMGLRLIYYSASEGTTDKGEVPNGYNVSRLNKREFSLRLESAAPSQTSVYFCASSYYGGSGAGYEQYFGPGTRLTVT
B4: TCR of SEQ ID NOs 34 and 35 (TCR, V domains shown)
Valpha: KQEVTQIPAALSVPEGENLVLNCSFTDSAIYNLQWFRQDPGKGLTSLLLIQSSQREQTSGRLNASLDKSSGRSTLYIAASQPGDSATYLCAVTGNTPLVFGKGTRLSVIA
Vbeta: NAGVTQTPKFQVLKTGQSMTLQCAQDMNHEYMSWYRQDPGMGLRLIHYSVGAGITDQGEVPNGYNVSRSTTEDFPLRLLSAAPSQTSVYFCASSYSPYYEQYFGPGTRLTVT
B5: TCR of SEQ ID NOs 36 and 37 (TCR, V domains shown)
Valpha: KQEVTQIPAALSVPEGENLVLNCSFTDSAIYNLQWFRQDPGKGLTSLLLIQSSQREQTSGRLNASLDKSSGRSTLYIAASQPGDSATYLCAVTGGTSYGKLTFGQGTILTVHP
Vbeta: NAGVTQTPKFRILKIGQSMTLQCTQDMNHNYMYWYRQDPGMGLKLIYYSVGAGITDKGEVPNGYNVSRSTTEDFPLRLELAAPSQTSVYFCASSYWAGVLTEAFFGQGTRLTVV
B6: TCR of SEQ ID NOs 32 and 33 (TCR, V domains shown)
Valpha: B2 Valpha with V93R, D94E, S95W, W96D, G97A, K98R, Q100M, A103D, V107L, T110K
Vbeta: NAGVTQTPKFQVLKTGQSMTLQCAQDMNHNSMYWYRQDPGMGLRLIYYSASEGTTDKGEVPNGYNVSRLNKREFSLRLESAAPSQTSVYFCASSLLRGWTEAFFGQGTRLTVV

Target: T1, MAGEC2 peptide on HLA-A*02
Experiment: binding, other

binding result	Binder
recognises	B1
recognises	B2
recognises	B3

Target: T2, MAGEC2 peptide on HLA-A*02
Experiment: binding, other

binding result	Binder
recognises	B4
recognises	B5
recognises	B6
